Molecular target: the molecule itself
Assay: SEC

B1: wild-type hamster PrP 121–231 (domain or fragment)
chain: not shown
stoichiometry N: 8
